# Measurements: the supplement of paper PMC9732359
# ± gives the uncertainty stated by the source.
# Experiment: protein stability index of a GFP-peptide fusion (yeast GPS) (PSI 1-4); higher = more stable; sorted into four equal gates, so the index is relative within each strain
# How it was run: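 Mid-log yeast cultures in leucine-free medium, carrying a pooled plasmid library, were sorted into four equal gates by their GFP/Cherry fluorescence ratio. Each plasmid expressed Cherry along with GFP fused upstream of a tiled 17-residue yeast protein peptide. Plasmids recovered from each gate were PCR-amplified and Illumina-sequenced, with reads assigned to strains by barcodes. The protein stability index was obtained by summing each gate's read frequency weighted by its gate number.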
Sequence,protein stability index (doa10∆),protein stability index (pdr5∆),protein stability index (san1∆),protein stability index (ubr1∆)
PFETFDHASIRRGYQVY [CYT1],2.68 ± 0.048,2.65 ± 0.044,2.82 ± 0.047,2.9 ± 0.032
PFIKSESKPFSSDALSK [SIR4],3.17 ± 0.07,3.15 ± 0.09,3.2 ± 0.046,3.13 ± 0.061
PFQLDVADMLTPEYAAE [UBP6],2.95 ± 0.17,2.65 ± 0.19,2.7 ± 0.085,2.77 ± 0.16
PFREFLQVLIDQLDSEA [ECM29],3.38 ± 0.095,2.6 ± 0.12,3.08 ± 0.089,3.01 ± 0.065
PGFQLPNRITLTDHRKE [SRB8],2.79 ± 0.079,2.98 ± 0.084,3.14 ± 0.069,3.22 ± 0.067
PGKGILTTAREHHSSVK [FAS2],3.07 ± 0.087,3.32 ± 0.076,3.17 ± 0.049,3.11 ± 0.067
PHGFPSRMTVGKMIELI [RET1],2.54 ± 0.11,2.56 ± 0.11,2.77 ± 0.084,2.46 ± 0.092
PHGISVFLSNLVETCLN [BRR2],1.39 ± 0.043,1.57 ± 0.035,1.48 ± 0.07,1.61 ± 0.03
PHLPFSKSENPVLSTIA [SWI3],1.95 ± 0.049,2.04 ± 0.048,2.03 ± 0.062,2.05 ± 0.028
PIAAPKKPRKPRQTKKA [PGD1],2.64 ± 0.11,3.18 ± 0.092,2.56 ± 0.082,3.09 ± 0.097
PIAQPATDVEARAVQDN [RPL13A],3.02 ± 0.15,3.17 ± 0.11,3.1 ± 0.14,1.69 ± 0.2
PILVTLVSDSEIIDLNL [POP6],2.29 ± 0.058,2.47 ± 0.046,2.36 ± 0.074,2.74 ± 0.054
PIMQTQMPLNSNGGNNM [SNF2],3 ± 0.059,2.92 ± 0.06,2.84 ± 0.057,2.62 ± 0.045
PINLKFLQGESPFSITF [YMR129W/POM152],2.53 ± 0.079,2.1 ± 0.063,2.63 ± 0.063,2.32 ± 0.071
PKELVPSHEKLKESYSQ [CDC53],3.13 ± 0.077,3.02 ± 0.067,2.51 ± 0.14,2.81 ± 0.073
PKLLDALNKISKYYPGV [SNU114],3.08 ± 0.076,2.37 ± 0.072,2.8 ± 0.065,2.88 ± 0.044
PKNLLKKFIEISDVKIQ [PRP8],1.76 ± 0.064,1.88 ± 0.067,1.76 ± 0.13,2.26 ± 0.05
PKNSSSPVQIAFNRFMA [SSN8],1.51 ± 0.053,1.74 ± 0.05,1.52 ± 0.1,1.57 ± 0.054
PKSTAPIFSFGKQEENG [YOR098C/NUP1],2.24 ± 0.053,2.75 ± 0.069,2.49 ± 0.059,2.38 ± 0.043
PLAKKQTVRLIKDLQRA [SIR2],2.77 ± 0.08,3.01 ± 0.07,2.77 ± 0.057,2.97 ± 0.062
PLGILHIPICVTFSFFN [RRP45],1.29 ± 0.05,1.26 ± 0.06,1.2 ± 0.096,1.12 ± 0.045
PLLDIVLKADRSWNEPS [YML103C/NUP188],2.02 ± 0.15,2.86 ± 0.26,–,3.12 ± 0.11
PLLRKVVDRESDIPKTT [PRE4],2.54 ± 0.11,2.46 ± 0.091,1.87 ± 0.13,2.79 ± 0.067
PLRDNGLLDESPNRLRV [YML031W/NDC1],3.2 ± 0.14,3.03 ± 0.1,3.15 ± 0.08,3.39 ± 0.074
PLVGKPKTELTKGDSTP [YAR002W/NUP60],2.59 ± 0.061,2.9 ± 0.058,2.46 ± 0.086,2.83 ± 0.11

Sequence,protein stability index (doa10∆),protein stability index (pdr5∆),protein stability index (san1∆),protein stability index (ubr1∆)
PLVIRRYLPDGSFEDWS [RPO26],3.43 ± 0.18,3.27 ± 0.18,3.44 ± 0.068,–
PLVYRHELITNIGETAG [RPB9],2.78 ± 0.046,2.88 ± 0.035,3.04 ± 0.042,3.02 ± 0.036
PMEVMGLMLGEFVDDYT [RPN11],3.29 ± 0.12,3.28 ± 0.095,3.12 ± 0.14,3.08 ± 0.074
PNERKAKQAKIRAGEFD [SNF2],3.62 ± 0.12,3.66 ± 0.18,2.99 ± 0.17,3.5 ± 0.14
PNETSEIAQANSRNAIR [RPL19A],2.7 ± 0.15,2.92 ± 0.095,2.54 ± 0.14,3.05 ± 0.13
PNFDWDLCSSVLSQFER [ROX3],3.12 ± 0.079,2.8 ± 0.095,2.6 ± 0.08,2.59 ± 0.067
PNFFLTLISENWWHSEF [BRR2],2.8 ± 0.22,2.27 ± 0.11,2.59 ± 0.092,2.85 ± 0.25
PNFNVEIMQQKFPATNV [ECM29],2.25 ± 0.26,3 ± 0.2,–,2.86 ± 0.17
PNHNSPVVINLDAKNKV [RPO31],2.92 ± 0.16,3.08 ± 0.19,–,3.03 ± 0.24
PNIHQNLLPKKSAKTAK [HTA2],2.88 ± 0.19,3.09 ± 0.29,–,3 ± 0.14
PNINTWQQVTALAQQKL [GAL11],2.2 ± 0.058,2.23 ± 0.064,2.11 ± 0.085,2.08 ± 0.054
PNLNMKYRKRQLVTREA [FAS2],3.68 ± 0.15,3.13 ± 0.11,3 ± 0.095,3.05 ± 0.081
PNNASSHISASASPHLA [SNF2],2.53 ± 0.046,2.66 ± 0.044,2.51 ± 0.069,2.88 ± 0.039
PNNETSVLSSKPGSKPE [SIR3],3.12 ± 0.11,3.04 ± 0.12,3.06 ± 0.082,2.96 ± 0.064
PNRITLTDHRKETWLHE [SRB8],2.8 ± 0.082,3.03 ± 0.086,3.17 ± 0.07,3.22 ± 0.068
PNTTKTKLRAFVYNKVN [YGR119C/NUP57],2.47 ± 0.21,–,–,–
PNVDLVTALEVLSLGRP [RGR1],1.95 ± 0.11,2.1 ± 0.063,2.47 ± 0.1,2.21 ± 0.058
PPEEFSNTIDELSTDII [SRB7],3.1 ± 0.057,3.16 ± 0.068,3.26 ± 0.069,3.05 ± 0.06
PPPPPPSNFEINAEEIV [PRP8],2.6 ± 0.038,3.04 ± 0.046,2.72 ± 0.039,2.9 ± 0.038
PPTDTNVEESVSKADIL [POP5],3.21 ± 0.12,3.18 ± 0.12,2.79 ± 0.069,3.05 ± 0.095
PQAVTITSIMDDLALPY [ITC1],2.85 ± 0.077,2.98 ± 0.062,2.72 ± 0.059,3.02 ± 0.046
PQDYVLERVKRIMEKSV [YML031W/NDC1],2.6 ± 0.059,2.66 ± 0.045,2.55 ± 0.087,2.12 ± 0.041
PQKSSSKGFVFNSVQKK [YAR002W/NUP60],1.65 ± 0.088,1.4 ± 0.1,1.83 ± 0.14,1.18 ± 0.13
PQMQCALQNLSQLPITP [YGL172W/NUP49],2.06 ± 0.087,2.23 ± 0.098,2.12 ± 0.1,2.23 ± 0.068
